In paper PMC3375223, “Caspase Inhibitors of the P35 Family Are More Active When Purified from Yeast than Bacteria” (PLoS ONE, 2012):
Values joined by “and” are separate entries in the source; they are usually repeats but may differ in a detail not shown here. Equal values may be shown once.

B1: AcP35-FLAG purified from Saccharomyces cerevisiae (natural protein)
chain: CVIFPVEIDVSQTIIRDCQVDKQTRELVYINKIMNTQLTKPVLMMFNISGPIRSVTRKNNNLRDRIKSKVDEQFDQLERDYSDQMDGFHDSIKYFKDEHYSVSCQNGSVLKSKFAKILKSHDYTDKKSIEAYEKYCLPKLVDERNDYYVAVCVLKPGFENGSNQVLSFEYNPIGNKVIVPFAHEINDTGLYEYDVVAYVDSVQFDGEQFEEFVQSLILPSSFKNSEKVLYYNEASKNKSMIYKALEFTTESSWGKSEKYNWKIFCNGFIYDKKSKVLYVKLHNVTSALNKNVILNTIK
modifications: N-acetylated amino terminus on 13% of the protein
B2: MaviP35-FLAG purified from Escherichia coli (natural protein)
chain: CVIFPVEIDVSQTVIKDCQVNKQTRELVYINKIMNIELTKPVLMMFNISGPIKSVTRKNNNLRDEIKSEIDKQFDQLERDHSTQFDGGHCIKYFKDEHYSISCQSGNVLKSKFEKILKSHGYTDEKSIEAYKKYCLPKLVDEQNNYYVAVCVLKPGFEKGSNQVLSFEYNPIGNKVIVPFAHEINDTGLYEYDAAAYVDNVKFDGEQQFEKFVQSLTLPSAYDDEEVLYYNETSENKRMMYKALEFKTKSCWGKFEWDYWKIFCNGFIYDEKLKVLYVKLHNVTSRVNNNIILNID
modifications: N-acetylated amino terminus on 24% of the protein
notes: MaviP35, the P35 orthologue of Maruca vitrata MNPV; full length protein lacking the initiating methionine (by mass spectrometry); expressed from pET23a-MaviP35-FLAG; Same coding region as m2 (excised from pGALL-(HIS3)-MaviP35-FLAG); the host differs; also called bacterially purified MaviP35; bacterially-produced MaviP35; source: E. coli BL21-(DE3)-pLysS, purified (Anti-FLAG M2-agarose, FLAG …)
B3: MaviP35-FLAG purified from Saccharomyces cerevisiae (natural protein)
chain: B2 chain
modifications: N-acetylated amino terminus on 12% of the protein
notes: MaviP35, the P35 orthologue of Maruca vitrata MNPV; full length protein lacking the initiating methionine (by mass spectrometry); expressed from pGALL-(HIS3)-MaviP35-FLAG; also called yeast-purified MaviP35; yeast-isolated MaviP35; source: gel filtration for some experiments; not shown: FLAG, C-terminal, kept

Legend:
[1] = molecular target: caspase 3 (human) (UniProt P42574); assay: inhibition of caspase activity on a fluorogenic peptide, inhibition constants by a competitive model; graded concentrations of P35 protein, 30 nM caspase 3, 100 µM Ac-DEVD-AFC; constants of the yeast-purified proteins taken from ref. 22
[2] = molecular target: the molecule itself; assay: SEC; Superdex S200 on an ÄKTA purifier, 0.6 ml/min, 20 mM Tris pH 7.4, 50 mM NaCl; sizes by elution against BioRad gel filtration standard
[3] = molecular target: the molecule itself; assay: cross-linking; purified FLAG-tagged MaviP35 incubated in 5 µM BMH for 30 min at room temperature, boiled in loading dye with 5% β-mercaptoethanol, SDS-PAGE and anti-FLAG immunoblot; oligomer sizes by migration against markers
[4] = molecular target: the molecule itself; assay: AUC; sedimentation velocity of gel filtration fractions (yeast 111–215 kDa, bacterial 89–138 kDa), 20°C, PBS, 40,000 rpm, 230 nm; 0.28 and 0.56 µM bacterial fractions, 1.95, 2.23 and 1.39 µM yeast fractions; c(s) and c(M) fits in SEDFIT

Chain of caspase 3 (human) (P42574 whole entry): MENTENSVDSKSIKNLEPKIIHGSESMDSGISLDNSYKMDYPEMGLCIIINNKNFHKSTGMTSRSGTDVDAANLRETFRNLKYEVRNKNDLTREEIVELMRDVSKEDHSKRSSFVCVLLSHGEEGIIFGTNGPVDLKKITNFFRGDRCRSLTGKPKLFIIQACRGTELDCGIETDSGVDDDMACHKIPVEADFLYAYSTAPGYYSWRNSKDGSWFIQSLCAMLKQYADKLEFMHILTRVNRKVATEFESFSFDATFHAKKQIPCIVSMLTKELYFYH

| Binder | fold more efficient in caspase 3 inhibition (inhibition constants, Figure 1B) than bacterially-purified AcP35 [1] | stoichiometry N [2] | stoichiometry N [3] | stoichiometry N [4] |
| --- | --- | --- | --- | --- |
| B1 | 6 fold | – | – | – |
| B2 | – | 3 | 10 | – |
| B3 | – | 2 and 5 | – | 4 and 6 and 8 |
